Experimental data published in the supplement of paper PMC7877785.
± gives the uncertainty stated by the source.

Experiment: self-splicing fitness, log relative to wild type (ln ratio); higher = more splicing; Tetrahymena group I intron in knt gene, E. coli kanamycin selection, DiMSum; sequences stand for … in CUCUCU…GGAGGGAAAAGUUAUCAGGCAUGCACCUGGUAGCUAGUCUUUAAACCAAUAGAUUGCAUCGGUUUAAAAGGCAAGACCGUCAAAUUGCGGGAAAGGGGUCAACAGCCGUUCAGUACCAAGUCUCAGGGGAAACUUUGAGAUGGCCUUGCAAAGGGUAUGGUAAUAAGCUGACGGACAUGGUCCUAACCACGCAGCCAAGUCCUAAGUCAACAGAUCUUCUGUUGAUAUGGAUGCAGUUCACAGACUAAAUGUCGGUCGGGGAAGAUGUAUUCUUCUCAUAAGAUAUAGUCGGACCUCUCCUUAAUGGGAGCUAGCGGAUGAAGUGAUGCAACACUGGAGCCGCUGGGAACUAAUUUGUAUGCGAAAGUAUAUUGAUUAGUUUUGGAGUACUCGUGGUCG
Outline: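 A randomised library covering all eight P1ex-region intron nucleotides was built with the intron in the knt kanamycin-resistance gene on pET-22b(+) and held in E. coli BL21(DE3). Cells were grown overnight at 37°C or 30°C on LB agar, with or without 25 μg/mL kanamycin, plus 100 μg/mL carbenicillin, 50 μM IPTG and 0.2% rhamnose, and pooled colonies were amplicon-sequenced on an Illumina HiSeq 2500. DiMSum fitness is the error-weighted combination of wild-type-normalised replicate fold changes, kanamycin versus none.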

| Sequence | self-splicing fitness (ln) (30 °C) | self-splicing fitness (ln) (37 °C) |
| --- | --- | --- |
| GAGUAGCAAUAUUACGUAUA | -2.4 ± 0.29 | -1.52 ± 0.22 |
| ACCGAGCAAUAUUACGCUUU | -3.06 ± 0.28 | -1.56 ± 0.15 |
| AUCGAGCAAUAUUACGUAGA | -3.09 ± 0.32 | -2.7 ± 0.38 |
| UGUGAGCAAUAUUACGACGG | -1.3 ± 0.34 | -0.759 ± 0.28 |
| AUAGAGCAAUAUUACGGGAA | -3.43 ± 0.26 | -2.46 ± 0.25 |
| CGAUAGCAAUAUUACGAGUU | -3.61 ± 0.24 | -2.28 ± 0.23 |
| AGUAAGCAAUAUUACGUUUA | -2.84 ± 0.22 | -1.56 ± 0.18 |
| CCCCAGCAAUAUUACGGGAG | -3.08 ± 0.17 | -2.61 ± 0.18 |
| GACCAGCAAUAUUACGUGUG | -0.363 ± 0.047 | -0.452 ± 0.058 |
| GGACAGCAAUAUUACGUCGU | -1.45 ± 0.071 | -0.405 ± 0.075 |
| CUCGAGCAAUAUUACGGGUG | -2.04 ± 0.077 | -1.88 ± 0.095 |
| GUCAAGCAAUAUUACGCAGG | -4.19 ± 0.36 | -2.3 ± 0.3 |
| GAAAAGCAAUAUUACGACUC | 0.143 ± 0.2 | -0.00506 ± 0.28 |
| GGGCAGCAAUAUUACGUUCU | -2.35 ± 0.19 | -1.2 ± 0.14 |
| AUUGAGCAAUAUUACGUUGA | -3.86 ± 0.37 | -3.45 ± 0.3 |
| ACACAGCAAUAUUACGGAUA | -2.87 ± 0.15 | -2.54 ± 0.15 |
| UGUAAGCAAUAUUACGGUAU |  | -1.68 ± 0.21 |
| CCUGAGCAAUAUUACGCAAA | -2.19 ± 0.26 | -2.42 ± 0.28 |
| UGUCAGCAAUAUUACGAGCG | 0.308 ± 0.083 | 0.59 ± 0.11 |
| CUUUAGCAAUAUUACGUAAU | -2.49 ± 0.16 | -2.78 ± 0.33 |
| UUAUAGCAAUAUUACGGAUA | -2.21 ± 0.32 | -0.955 ± 0.19 |
| CUUGAGCAAUAUUACGGUGC | -3.34 ± 0.35 | -2.19 ± 0.42 |
| GACUAGCAAUAUUACGAACU | 0.186 ± 0.15 | 1.04 ± 0.22 |
| CUAGAGCAAUAUUACGAGCA |  | -3.27 ± 0.31 |
| GUACAGCAAUAUUACGAGUU | -1.7 ± 0.094 | -1.36 ± 0.12 |

| Sequence | self-splicing fitness (ln) (30 °C) | self-splicing fitness (ln) (37 °C) |
| --- | --- | --- |
| UUGCAGCAAUAUUACGAUUG | -1.62 ± 0.32 | -0.337 ± 0.21 |
| GUAAAGCAAUAUUACGGGAG | -3.68 ± 0.25 | -1.67 ± 0.14 |
| UUACAGCAAUAUUACGGAGU | -4.03 ± 0.29 | -2.7 ± 0.22 |
| UUAUAGCAAUAUUACGACUU | -1.85 ± 0.28 | -0.00223 ± 0.29 |
| AGGCAGCAAUAUUACGAAAA | -3.77 ± 0.25 | -2.26 ± 0.15 |
| GUACAGCAAUAUUACGUCAC |  | -2.14 ± 0.31 |
| CAGCAGCAAUAUUACGAUGA | -2.7 ± 0.21 | -1.31 ± 0.14 |
| UAAUAGCAAUAUUACGGUUC | -2.91 ± 0.29 |  |
| CGCUAGCAAUAUUACGCUGU |  | -2.3 ± 0.19 |
| UUUUAGCAAUAUUACGUGGC | -3.09 ± 0.42 |  |
| AUCGAGCAAUAUUACGCCGU | -2.52 ± 0.21 | -1.46 ± 0.31 |
| UAUUAGCAAUAUUACGGAAU | -4.02 ± 0.33 | -0.66 ± 0.19 |
| UGUGAGCAAUAUUACGCGGA | -2.4 ± 0.2 | -1.31 ± 0.21 |
| GCCAAGCAAUAUUACGUGCA | -1.63 ± 0.087 | -0.541 ± 0.09 |
| AGGGAGCAAUAUUACGAGGG |  | -2.2 ± 0.5 |
| CUCCAGCAAUAUUACGGUAG | -3.88 ± 0.19 | -3.24 ± 0.27 |
| CAGAAGCAAUAUUACGCCUA | -0.835 ± 0.12 | -0.744 ± 0.093 |
| CCGAAGCAAUAUUACGGAAA | -3.26 ± 0.26 | -3.49 ± 0.31 |
| CUACAGCAAUAUUACGCCGG | -2.19 ± 0.13 | -1.26 ± 0.13 |
| GAGGAGCAAUAUUACGACAA | -2.14 ± 0.24 | -1.1 ± 0.27 |
| UUGCAGCAAUAUUACGGAUA | -1.92 ± 0.15 | -1.12 ± 0.17 |
| GCGCAGCAAUAUUACGCCAA |  | -1.42 ± 0.47 |
| GUGGAGCAAUAUUACGUAGU | -2.93 ± 0.24 | -0.993 ± 0.27 |
| GUGAAGCAAUAUUACGGACG | 0.234 ± 0.081 | 0.144 ± 0.092 |
| AACCAGCAAUAUUACGGAAG | -1.22 ± 0.066 | 0.117 ± 0.089 |
